Data reported in patent US20240067742A1 (4C BIOMED, published 2024).

T1: His-tagged human HVEM (human, UniProt Q92956 39-202)
T1 construct: extracellular domain; also called His-tagged HVEM (Acro Biosystems); HVEM extracellular domain peptide; not shown: His tag
T1 sequence (looked up): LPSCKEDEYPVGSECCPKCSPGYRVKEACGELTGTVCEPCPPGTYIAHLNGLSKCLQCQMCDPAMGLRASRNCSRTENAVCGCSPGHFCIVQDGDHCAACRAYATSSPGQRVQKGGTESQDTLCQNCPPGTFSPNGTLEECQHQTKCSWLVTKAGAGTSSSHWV

T2: HVEM on HVEM-positive melanoma cells (UniProt Q92956 39-283, limits assumed)
T2 sequence (looked up): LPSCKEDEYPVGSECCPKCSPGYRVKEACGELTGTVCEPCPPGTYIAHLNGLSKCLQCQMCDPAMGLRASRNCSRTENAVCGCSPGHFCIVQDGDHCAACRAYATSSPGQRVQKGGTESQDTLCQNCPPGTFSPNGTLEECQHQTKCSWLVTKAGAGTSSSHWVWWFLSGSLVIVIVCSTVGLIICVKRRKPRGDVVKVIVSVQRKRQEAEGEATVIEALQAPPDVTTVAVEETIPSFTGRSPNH


How the values were obtained:
His-tagged human HVEM [1] = molecular target: T1, His-tagged human HVEM; assay: Biacore 8K multi-cycle kinetics, purified antibody captured on Protein A, His-tagged human HVEM as analyte, 25 C
Method: (§1) Multi-Cycle Kinetics: Multicycle kinetic analysis was performed on purified antibodies. Kinetic experiments were performed at 25° C. on a Biacore 8K. HBS-P+0.1% BSA (Cytiva, Marlborough, USA) was used as running buffer. Purified antibodies were diluted to 1.0 μg/mL in running buffer and at the start of each cycle, loaded onto Fc2, Fc3 and Fc4 of a Protein A sensor chip (Cytiva, Marlborough, USA). Antibodies were captured at a flow rate of 10 μl/min to give an immobilisation level (RL) of ˜ 100 RU. The surface was then allowed to stabilise. Multi-cycle kinetic data was obtained using His-tagged human HVEM as the analyte injected at a flow rate of 50 μl/min. A eight point, two-fold dilution range from 0.78 nM to 100 nM of antigen were prepared in running buffer. For each concentration, the association phases were monitored for 180 seconds and the dissociation phase was measured for 300 seconds. Regeneration of the sensor chip surface was conducted between cycles using two injections of 10 mM Glycine-HCl, pH 1.5.
(§2) First a multicycle kinetics Biacore affinity assay was performed to confirm the improved binding of the H4, T57A, T57G and T57N antibodies (FIG. 3A). Each purified antibody was captured to a Protein A sensor chip before increasing concentrations of antigen (hHVEM) were injected. The fold improvement in affinity was calculated by dividing the average KD of the parent antibody by the average KD for each variant antibody. […] A single-cycle kinetic Biacore assay was also performed with the H4 N55G, H4 N55S, H4 N55D, H4 N55Q, H4 N55E, and H4 T57E antibodies (FIG. 3B).

His-tagged human HVEM [2] = molecular target: T1, His-tagged human HVEM; assay: Biacore KD to HVEM extracellular domain, IgG captured on Protein A, His-tagged HVEM as analyte; reference: Parental
Method: Affinity maturation: To improve binding affinity, the parental antibody was affinity matured using phage display. Heavy and/or light chain CDRs of variable domain regions were semi-randomized using oligonucleotide mutagenesis. Selections were performed using separate heavy and light chain phage libraries and decreasing concentrations of biotinylated His-tagged HVEM target to select the highest affinity binders from each library. Following four rounds of selections individual clones were screened as scFv supematants in a binding ELISA to identify lead candidates with signals greater than the parental scFv expressed in the same assay. Identified hits were converted into IgG and cloned into mammalian expression vectors. Plasmids encoding the affinity improved variants paired with the appropriate parental heavy or light chain, as well as the parental antibody, were transiently transfected small scale into HEK EBNA adherent cells (LGC Standards, Teddington, UK). At five days post-transfection, the supernatants were harvested, quantified by Octet (serial no. FB-30203) and analysed by Biacore single cycle kinetics.
(§3) Single Cycle Kinetics: To assess the binding of the affinity matured IgGs, single cycle kinetic analysis was performed on supernatants using a Biacore T200 (serial no. 1909913). Kinetic experiments were performed at 25° C. running Biacore T200 Control software V2.0.1 and Evaluation software V3.0 (Cytiva, Marlborough, USA). Antibodies were diluted in HBS-P+(Cytiva, Marlborough, USA) containing 1 mg/ml BSA to a final concentration of 1.0 μg/ml. Antibodies were loaded onto Fc2, Fc3 and Fc4 of the Protein A capture Sensor chip (Cytiva, Marlborough, USA). IgGs were captured at a flow rate of 10 μl/min to give an immobilisation level (RL) of ˜50 RU. The surface was then allowed to stabilize. Single cycle kinetics data was obtained using His-tagged HVEM (Acro Biosystems, Newark, USA) as the analyte at a flow rate of 40 μl/min. A two-fold dilution range from […] to 100 nM His-tagged antigen without regeneration between each concentration was used.

His-tagged human HVEM [3] = molecular target: T1, His-tagged human HVEM; assay: Biacore 8K multi-cycle kinetics, purified antibody captured on Protein A, His-tagged human HVEM as analyte; reference: Parental
Method: as §1, §2

His-tagged human HVEM [4] = molecular target: T1, His-tagged human HVEM; assay: Biacore T200 single-cycle kinetics, antibody supernatant captured on Protein A, His-tagged HVEM as analyte; reference: Parental
Method: as §3, §2

His-tagged human HVEM [5] = molecular target: T1, His-tagged human HVEM; assay: Biacore T200 single-cycle kinetics, antibody supernatant captured on Protein A, His-tagged HVEM as analyte, 25 C
Method: as §3, §2

[6] = molecular target: T2, HVEM on HVEM-positive melanoma cells; assay: cell-based or functional assay

| Binder | Fold improvement vs parental (KD) (His-tagged human HVEM [2]) [fold] | Fold improvement (KD parent / KD variant) (His-tagged human HVEM [4]) [fold] | Kd (His-tagged human HVEM [5]) [nM] | also measured |
| --- | --- | --- | --- | --- |
| H4 (antibody, human IgG4 S228P, kappa, V domains shown, N-linked glycosylation site (NXS/T; NRT) in CDR-H2 found to be glycosylated in the final antibody (FIG. 1), also called H4-CDR2; H4 antibody) VH: QVQLVQSGGGLVQPGGSLRLSCAASGFTFSSYAMSWVRQAPGKGLEWVSNIYSNPNRTYYADSVEGRFTISRDNSKNTLYLQMNSLRAEDTAVYYCAKAPGDYTAYFDYWGQGTLVTVSS VL: not shown | 9.57 |  |  | Kd (His-tagged human HVEM [1]): 4.65 nM; Fold improvement (KD parent / KD variant) (His-tagged human HVEM [3]): 14 fold |
| L18-H5 (antibody, human IgG4 S228P, kappa, V domains shown, combination of the L18 light chain and the H5 heavy chain; also called L18 (CDR3)-H5 (CDR2)) VH: QVQLVQSGGGLVQPGGSLRLSCAASGFTFSSYAMSWVRQAPGKGLEWVSNINGPGNGTYYADSVEGRFTISRDNSKNTLYLQMNSLRAEDTAVYYCAKAPGDYTAYFDYWGQGTLVTVSS VL: ELVLTQSPATLSLSPGERATLSCRASQSVSSYLAWYQQKPGQAPRLLIYGASSRATGIPDRFSGSGSGTDFTLTISRLEPEDFAVYYCQQYGSYPPLTFGQGTKVEIKR | 1.51 |  |  |  |
| L18 (antibody, human IgG4 S228P, kappa, V domains shown, also called L18 (CDR3)) VH: not shown VL: ELVLTQSPATLSLSPGERATLSCRASQSVSSYLAWYQQKPGQAPRLLIYGASSRATGIPDRFSGSGSGTDFTLTISRLEPEDFAVYYCQQYGSYPPLTFGQGTKVEIKR | 1 |  |  |  |
| H5 (antibody, human IgG4 S228P, kappa, V domains shown, also called H5-CDR2) VH: QVQLVQSGGGLVQPGGSLRLSCAASGFTFSSYAMSWVRQAPGKGLEWVSNINGPGNGTYYADSVEGRFTISRDNSKNTLYLQMNSLRAEDTAVYYCAKAPGDYTAYFDYWGQGTLVTVSS VL: not shown | 5.05 |  |  |  |
| H4-N55S (antibody, human IgG4 S228P, kappa, V domains shown, H4 variant without the CDR-H2 glycosylation site; also called H4-N55S-CDR2) VH: QVQLVQSGGGLVQPGGSLRLSCAASGFTFSSYAMSWVRQAPGKGLEWVSNIYSNPSRTYYADSVEGRFTISRDNSKNTLYLQMNSLRAEDTAVYYCAKAPGDYTAYFDYWGQGTLVTVSS VL: not shown | 2.67 | 2.67 | 21 |  |
| H6 (antibody, human IgG4 S228P, kappa, V domains shown, also called H6-CDR2) VH: QVQLVQSGGGLVQPGGSLRLSCAASGFTFSSYAMSWVRQAPGKGLEWVSGINGNGDYTYYADSVKGRFTISRDNSKNTLYLQMNSLRAEDTAVYYCAKAPGDYTAYFDYWGQGTLVTVSS VL: not shown | 1.53 |  |  |  |
| H4-N55G (antibody, human IgG4 S228P, kappa, V domains shown, H4 variant without the CDR-H2 glycosylation site; also called H4-N55G-CDR2) VH: QVQLVQSGGGLVQPGGSLRLSCAASGFTFSSYAMSWVRQAPGKGLEWVSNIYSNPGRTYYADSVEGRFTISRDNSKNTLYLQMNSLRAEDTAVYYCAKAPGDYTAYFDYWGQGTLVTVSS VL: not shown | 4.29 | 4.29 | 13.1 |  |
| L18-H4 (antibody, human IgG4 S228P, kappa, V domains shown, combination of the L18 light chain and the H4 heavy chain; also called L18 (CDR3)-H4 (CDR2)) VH: QVQLVQSGGGLVQPGGSLRLSCAASGFTFSSYAMSWVRQAPGKGLEWVSNIYSNPNRTYYADSVEGRFTISRDNSKNTLYLQMNSLRAEDTAVYYCAKAPGDYTAYFDYWGQGTLVTVSS VL: ELVLTQSPATLSLSPGERATLSCRASQSVSSYLAWYQQKPGQAPRLLIYGASSRATGIPDRFSGSGSGTDFTLTISRLEPEDFAVYYCQQYGSYPPLTFGQGTKVEIKR | 2.57 |  |  |  |
| H4-N55D (antibody, human IgG4 S228P, kappa, V domains shown, H4 variant without the CDR-H2 glycosylation site; also called H4-N55D-CDR2) VH: QVQLVQSGGGLVQPGGSLRLSCAASGFTFSSYAMSWVRQAPGKGLEWVSNIYSNPDRTYYADSVEGRFTISRDNSKNTLYLQMNSLRAEDTAVYYCAKAPGDYTAYFDYWGQGTLVTVSS VL: not shown | 3.93 | 3.93 | 14.3 |  |
| H4-E64K (antibody, human IgG4 S228P, kappa, V domains shown, also called H4-E64K-CDR2) VH: QVQLVQSGGGLVQPGGSLRLSCAASGFTFSSYAMSWVRQAPGKGLEWVSNIYSNPNRTYYADSVKGRFTISRDNSKNTLYLQMNSLRAEDTAVYYCAKAPGDYTAYFDYWGQGTLVTVSS VL: not shown | 2.15 |  |  |  |
| Par-K64E (antibody, human IgG4 S228P, kappa, V domains shown, also called Parental-K64E-VH-CDR2; Par-K64E antibody) VH: QVQLVQSGGGLVQPGGSLRLSCAASGFTFSSYAMSWVRQAPGKGLEWVSAISGSGGSTYYADSVEGRFTISRDNSKNTLYLQMNSLRAEDTAVYYCAKAPGDYTAYFDYWGQGTLVTVSS VL: not shown | 3.14 |  |  |  |
| H4-T57G (antibody, human IgG4 S228P, kappa, V domains shown, H4 variant without the CDR-H2 glycosylation site; also called H4-T57G-CDR2) VH: QVQLVQSGGGLVQPGGSLRLSCAASGFTFSSYAMSWVRQAPGKGLEWVSNIYSNPNRGYYADSVEGRFTISRDNSKNTLYLQMNSLRAEDTAVYYCAKAPGDYTAYFDYWGQGTLVTVSS VL: not shown | 6.24 |  |  | Kd (His-tagged human HVEM [1]): 7.27 nM; increase in specific killing events (Caspase 3/7) in melanoma cells cocultured with autologous TILs, as compared to the isotype control, after nine hours [6]: 19%; Fold improvement (KD parent / KD variant) (His-tagged human HVEM [3]): 8.97 fold |
| H8 (antibody, human IgG4 S228P, kappa, V domains shown, also called H8-CDR2) VH: QVQLVQSGGGLVQPGGSLRLSCAASGFTFSSYAMSWVRQAPGKGLEWVSAIGGSGSGTYYADSVKGRFTISRDNSKNTLYLQMNSLRAEDTAVYYCAKAPGDYTAYFDYWGQGTLVTVSS VL: not shown | 1.3 |  |  |  |
| H4-N55Q (antibody, human IgG4 S228P, kappa, V domains shown, H4 variant without the CDR-H2 glycosylation site; also called H4-N55Q-CDR2) VH: QVQLVQSGGGLVQPGGSLRLSCAASGFTFSSYAMSWVRQAPGKGLEWVSNIYSNPQRTYYADSVEGRFTISRDNSKNTLYLQMNSLRAEDTAVYYCAKAPGDYTAYFDYWGQGTLVTVSS VL: not shown | 2.59 | 2.59 | 21.7 |  |
| H4-T57E (antibody, human IgG4 S228P, kappa, V domains shown, H4 variant without the CDR-H2 glycosylation site; also called H4-T57E-CDR2) VH: QVQLVQSGGGLVQPGGSLRLSCAASGFTFSSYAMSWVRQAPGKGLEWVSNIYSNPNREYYADSVEGRFTISRDNSKNTLYLQMNSLRAEDTAVYYCAKAPGDYTAYFDYWGQGTLVTVSS VL: not shown | 2.4 | 2.4 | 23.4 |  |
| H4-N55E (antibody, human IgG4 S228P, kappa, V domains shown, H4 variant without the CDR-H2 glycosylation site; also called H4-N55E-CDR2) VH: QVQLVQSGGGLVQPGGSLRLSCAASGFTFSSYAMSWVRQAPGKGLEWVSNIYSNPERTYYADSVEGRFTISRDNSKNTLYLQMNSLRAEDTAVYYCAKAPGDYTAYFDYWGQGTLVTVSS VL: not shown | 2.73 | 2.73 | 20.6 |  |
